This is an account of results in publication PMC11423328, “Catalytic Redundancies and Conformational Plasticity Drives Selectivity and Promiscuity in Quorum Quenching Lactonases” (JACS Au, 2024).

The Km is the substrate concentration at which the rate is half of its maximum. A word on the kcat: it is the maximal rate divided by the concentration of active sites. The term kcat/Km denotes the second-order rate constant that governs catalysis at low substrate concentration.

One data set addresses T1, GcL (Parageobacillus caldoxylosilyticus, UniProt A0A023DFE8, A156S).
T1 construct: gene GCA01S_030_00190; expressed in E. coli BL21(DE3)-pGro7/GroEL with CoCl2; bimetallic Fe/Co centre; dimer
Nature of the data set: 4-nitrophenolate release at […] nm. It counts as biochemical. The following applies: 50 mM HEPES pH 8.0 (methods; table note pH 8.3), 150 mM NaCl, CoCl2, 25 °C.

Substrate in data set [1]: CCCCCC(=O)N[C@H]1CCOC1=O
Nature of the data set: purified protein. Format: biochemical, Parageobacillus caldoxylosilyticus. The following applies: pH 8.3, 25 °C, 2.5 mM bicine, 150 mM NaCl, 0.2 mM CoCl2.

Substrate in data set [2]: CCCC(=O)N[C@H]1CCOC1=O
Nature of the data set: purified protein. It counts as biochemical, Parageobacillus caldoxylosilyticus. As to conditions: pH 8.3, 25 °C, 2.5 mM bicine, 150 mM NaCl, 0.2 mM CoCl2.

Substrate in data set [3]: CCCCCCCC(=O)N[C@H]1CCOC1=O
Nature of the data set: purified protein. It counts as biochemical, Parageobacillus caldoxylosilyticus. As to conditions: pH 8.3, 25 °C, 2.5 mM bicine, 150 mM NaCl, 0.2 mM CoCl2.

Changes are numbered by the printed parent chain. Names may count otherwise.

T1 sequence (A0A023DFE8 entry or part of it A156S): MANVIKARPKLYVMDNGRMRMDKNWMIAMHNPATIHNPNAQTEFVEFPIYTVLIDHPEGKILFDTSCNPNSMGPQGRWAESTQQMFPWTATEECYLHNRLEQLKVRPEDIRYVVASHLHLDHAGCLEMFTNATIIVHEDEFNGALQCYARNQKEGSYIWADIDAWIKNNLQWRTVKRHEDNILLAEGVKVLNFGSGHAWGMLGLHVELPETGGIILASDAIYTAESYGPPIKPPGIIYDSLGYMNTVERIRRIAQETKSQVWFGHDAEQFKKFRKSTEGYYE

As for `CCOP(=O)(OCC)Oc1ccc([N+](=O)[O-])cc1` [Paraoxon, paraoxon ethyl], the Km at GcL was determined as 964 ± 136 µM.

B1: GcL (Parageobacillus caldoxylosilyticus NBRC 107762; Y222F) (protein)
chain: MANVIKARPKLYVMDNGRMRMDKNWMIAMHNPATIHNPNAQTEFVEFPIYTVLIDHPEGKILFDTSCNPNSMGPQGRWAESTQQMFPWTATEECYLHNRLEQLKVRPEDIRYVVASHLHLDHAGCLEMFTNATIIVHEDEFNGALQCYARNQKEGAYIWADIDAWIKNNLQWRTVKRHEDNILLAEGVKVLNFGSGHAWGMLGLHVELPETGGIILASDAIFTAESYGPPIKPPGIIYDSLGYMNTVERIRRIAQETKSQVWFGHDAEQFKKFRKSTEGYYE
notes: expressed in E. coli BL21(DE3)-pGro7/GroEL with CoCl2; bimetallic Fe/Co centre; dimer
In the case of B1, in “purified protein [1]”, the Km came out at 92.7 ± 36.7 µM, the turnover number (kcat) came out at 5.01 ± 0.46 s⁻¹ and the kcat/Km worked out at 54100 ± 21900 M⁻¹ s⁻¹. In the data set “purified protein [2]”, the Michaelis-Menten constant (Km) amounted to 758 ± 275 µM, the kcat amounted to 0.79 ± 0.15 s⁻¹ and the kcat/Km amounted to 1040 ± 430 M⁻¹ s⁻¹.

B2: GcL (Parageobacillus caldoxylosilyticus NBRC 107762; A156G) (protein)
chain: B1 chain with A156G, F222Y
notes: as for B1
In the case of B2, in “purified protein [3]”, the Km was 19.34 ± 3.28 µM, the kcat turned out to be 7.97 ± 0.33 s⁻¹ and the kcat/Km amounted to 412000 ± 72000 M⁻¹ s⁻¹.

B3: GcL (Parageobacillus caldoxylosilyticus NBRC 107762; G155P) (protein)
chain: B1 chain with G155P, F222Y
notes: as for B1
Take B3: in the data set “purified protein [1]”, the Km was found to be 563 ± 150 µM, the kcat amounted to 2.44 ± 0.31 s⁻¹ and the kcat/Km came out at 4340 ± 1280 M⁻¹ s⁻¹. Further, in the data set “purified protein [3]”, the Km is 8.22 ± 2.92 µM, the catalytic constant (kcat) amounted to 1.44 ± 0.09 s⁻¹ and the catalytic efficiency (kcat/Km) amounted to 175000 ± 63000 M⁻¹ s⁻¹.

B4: GcL (Parageobacillus caldoxylosilyticus NBRC 107762; D121N) (protein)
chain: B1 chain with D121N, F222Y
notes: as for B1
In the case of B4, in “purified protein [1]”, the Michaelis-Menten constant (Km) worked out at 13.0 ± 6.16 µM, the kcat turned out to be 2.6 ± 0.24 s⁻¹ and the kcat/Km came out at 200000 ± 96000 M⁻¹ s⁻¹. In addition, in “purified protein [2]”, the Km amounted to 41.0 ± 9.14 µM, the kcat stood at 1.74 ± 0.1 s⁻¹ and the catalytic efficiency (kcat/Km) worked out at 42500 ± 9800 M⁻¹ s⁻¹.

B5: GcL (Parageobacillus caldoxylosilyticus NBRC 107762; I236M) (protein)
chain: B1 chain with F222Y, I236M
notes: as for B1
With B5, in the data set “purified protein [1]”, the Michaelis-Menten constant (Km) worked out at 2.38 ± 0.68 µM, the kcat is 0.95 ± 0.04 s⁻¹ and the catalytic efficiency (kcat/Km) stood at 399000 ± 115000 M⁻¹ s⁻¹.

B6: GcL (Parageobacillus caldoxylosilyticus NBRC 107762; A156S) (protein)
chain: B1 chain with A156S, F222Y
notes: as for B1
On to B6, for which, in the data set “purified protein [2]”, the Michaelis-Menten constant (Km) came to 475 ± 103 µM, the kcat came out at 24.9 ± 2.52 s⁻¹ and the kcat/Km was determined as 52400 ± 12500 M⁻¹ s⁻¹.
